Where “and” joins values, the source holds several entries; their conditions need not be identical. Identical values can stand only once.
Biological target: T1, Vma22p (S. cerevisiae, UniProt P38784 1-181)
T1 sequence (looked up): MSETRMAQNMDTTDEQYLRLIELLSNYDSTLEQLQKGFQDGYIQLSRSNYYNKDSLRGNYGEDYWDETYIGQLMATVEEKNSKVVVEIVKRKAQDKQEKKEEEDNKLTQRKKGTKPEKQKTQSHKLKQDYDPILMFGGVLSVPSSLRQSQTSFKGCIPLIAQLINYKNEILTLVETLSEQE
Test: cross-linking

half-life of the interaction in cells (pulse-chase, cross-linkable Vph1p): < 5 min and ~5 min
B1: Vph1p, the 100-kD integral membrane subunit of the V-ATPase (natural protein, S. cerevisiae, UniProt P32563 1-840, looked up)
chain: MAEKEEAIFRSAEMALVQFYIPQEISRDSAYTLGQLGLVQFRDLNSKVRAFQRTFVNEIRRLDNVERQYRYFYSLLKKHDIKLYEGDTDKYLDGSGELYVPPSGSVIDDYVRNASYLEERLIQMEDATDQIEVQKNDLEQYRFILQSGDEFFLKGDNTDSTSYMDEDMIDANGENIAAAIGASVNYVTGVIARDKVATLEQILWRVLRGNLFFKTVEIEQPVYDVKTREYKHKNAFIVFSHGDLIIKRIRKIAESLDANLYDVDSSNEGRSQQLAKVNKNLSDLYTVLKTTSTTLESELYAIAKELDSWFQDVTREKAIFEILNKSNYDTNRKILIAEGWIPRDELATLQARLGEMIARLGIDVPSIIQVLDTNHTPPTFHRTNKFTAGFQSICDCYGIAQYREINAGLPTIVTFPFMFAIMFGDMGHGFLMTLAALSLVLNEKKINKMKRGEIFDMAFTGRYIILLMGVFSMYTGFLYNDIFSKTMTIFKSGWKWPDHWKKGESITATSVGTYPIGLDWAWHGTENALLFSNSYKMKLSILMGFIHMTYSYFFSLANHLYFNSMIDIIGNFIPGLLFMQGIFGYLSVCIVYKWAVDWVKDGKPAPGLLNMLINMFLSPGTIDDELYPHQAKVQVFLLLMALVCIPWLLLVKPLHFKFTHKKKSHEPLPSTEADASSEDLEAQQLISAMDADDAEEEEVGSGSHGEDFGDIMIHQVIHTIEFCLNCVSHTASYLRLWALSLAHAQLSSVLWTMTIQIAFGFRGFVGVFMTVALFAMWFALTCAVLVLMEGTSAMLHSLRLHWVESMSKFFVGEGLPYEPFAFEYKDMEVAVASASSSASS

— PMC2133036 (The Journal of Cell Biology, 1998)
